Laboratory results published in PMC10343505 (Molecules, 2023).
Where a SMILES comes first, the peptide text is derived from it. The star is where a group is joined. Galloyl = O=C(c1cc(O)c(O)c(O)c1)*

What was measured:
fresh human serum = conditions: 37 °C, up to 20 min
[1] = Water solubility of synthesized compounds; format: physicochemical; conditions: concentration of 1 mg/mL in pure water
Method: The Hecate N-terminal fragments found in the serum stability experiment were selected to conjugate with gallic acid, like that in the GA-Hecate structure, where GA is coupled at the N-terminal region. Bioconjugates were synthesized using solid-phase methods and, after purification, their purity and identities were determined by high-performance liquid chromatography and mass spectrometry, respectively (see Supplementary Information). GA-metabolite 6 was not water-soluble and therefore was not considered for further biological evaluation.

Vero cells [2] = assay: Cytotoxicity profile, WST-1 viability assay; format: cell-based, African green monkey; conditions: 72 h; for CC50 (50% cytotoxic concentration in VERO cells): WST-1, non-linear regression of dose-response curve; for maximum non-toxic concentration: arbitrary threshold of 80% cell viability, range 80-0.62 µM
Method: To understand the effect of GA-Hecate and N-terminal-GA-metabolites on host cells, we tested them at a range of concentrations (80–0.62 µM) on Vero cells. Considering the arbitrary threshold of 80% cell viability, GA-Hecate, and GA-metabolite 5 reached their maximum non-toxic concentration at 40 µM (Figure 2).
Figure 2 Compound effects on Vero cells. Vero cells were incubated with different concentrations of GA-peptides. At 72 h post treatment, cell viability was determined by WST viability assay and the values are plotted as those relative to the control. Bars represent triplicate samples of three independent assays. *** p < 0.001. Comparison control vs. concentration. Water, the GA-peptide vehicle, was used as a negative control. Red dotted lines represent the arbitrary threshold of 80% cell viability.
The cytotoxicity profile of GA-Hecate and GA-metabolites. Peptide cytotoxicity profiles were measured using the WST-1 (4-[3-(4-iodophenyl)-2-(4-nitrophenyl)-2H-5-tetrazolio]-3-benzene disulfonate) cell proliferation reagent. A total of 24 h before treatment, 7 × 10^3 Vero cells/well were cultured with supplemented DMEM in a 96-multi-well plate and incubated at 37 °C in a humidified 5% CO2 incubator. The next day, the peptide-containing medium was added at the following final concentrations: 80; 40; 20; 10; 5; 2.5; 1.25, and 0.625 µM. After 72 h of incubation, peptide medium was removed, and WST-1 at a dilution of 1:10 was added to the wells and incubated for 30 min. Absorbance was measured at 450 nm, using a plate reader spectrophotometer.

ZIKV strain MP1751 = assay: Virucidal assay, micro-neutralization; format: cell-based, Zika virus; conditions: virus pre-incubated 1 h, 72 hpi, Vero
Method: We next tested the virucidal effect of GA-Hecate and GA-metabolite 5 at concentrations of 20 µM and 40 µM on ZIKV strain MP1751 as described above. Again, we found a modest effect of GA-Hecate at 40 µM on ZIKV strain MP1751 replication. […] Given the latter result, the combination was not tested.
Sandwich ELISA to assess ZIKV infectivity (micro-neutralization). This assay was performed as described previously by Lopez-Chamaco et al., 2018. Briefly, at 72 h post-treatment (h.p.i.) the infected cell medium was removed, and cells were washed with PBS and then lysed with lysis buffer (20 mM Tris-HCl (pH 7.4), 20 mM iodoacetamide, 150 mM NaCl, 1 mM EDTA, and 0.5% Triton X-100) containing protease inhibitors. The lysis solution was transferred to an Immunolon® plate pre-coated with 3 µg/mL of purified pan-flavivirus MAb D1-4G2-4-15 (ATCC® HB112TM, herein referred to as 4G2) in PBS and incubated at room temperature for 1 h. […] After washing with PBST, 100 µL of TMB solution (Life Technologies) was added and the reaction stopped at 30 min with 50 µL of 0.5 M H2SO4 solution added and read at 450 nm using a plate reader spectrophotometer (ELISA).
Entry step assessment of GA-Hecate and GA-metabolites on Zika Virus. […] The levels of virus replication were determined using micro-neutralization as described above. […]

Vero cells [3] = assay: Cell toxicity during constant treatment (cell count, WST-1); format: cell-based, African green monkey; conditions: 20 µM for 3 and 7 days
Method: We next assessed the effect, if any, of our peptides on cell growth, which in turn could affect virus replication. Vero cells in culture flasks were propagated in the presence or absence of 20 µM each of GA-peptides for 3 and 7 days. At this time point, viable cells were counted following incubation with trypsin using the automated cell counter Scepter^TM (Millipore), and cell shape was monitored using phase-contrast microscopy. Then, 7 × 10^3 cells were seeded per well of a 96-well plate, incubated for 24 h, and cell viability was measured using the WST-1 viability reagent (Figure 9c,d). […] This was consistent with the lower cell viability found for GA-Hecate-treated cells (65% of the control, Figure 9c).
Figure 9 Effect of peptides on Vero. (a) Cells were treated with 20 µM each of the peptides and cell counts determined at 3 and 7 days (a) during or (b) after treatment, as described in the text. (c,d) depict the cell viability counts from (a,b), respectively, shown as plots. Bars represent triplicate samples of three independent assays. *** p < 0.001. […]
GA-Hecate and GA-metabolite cell toxicity during constant treatment. […] Absorbance was measured at 450 nm, using a plate reader spectrophotometer. […] Cell images were obtained using a confocal microscope and the number of cells/mL was automatically measured using the automated cell counter Scepter^TM (Millipore). […]

[4] = Serum stability, mass spectrometry; format: in vitro ADME; conditions: 100 µL of 1 mg/mL peptide + 100 µL fresh human serum, 37 °C, 20 min, ethanol precipitation, ESI mass spectrometry
Method: The GA-Hecate peptide has shown promising efficacy in antiviral assays, but its stability and target selectivity are yet to be determined. An understanding of these properties is crucial for the future progression of the peptide for therapeutic end use. To evaluate its stability, the Hecate peptide was incubated in freshly prepared human blood serum at 37 °C for 20 min. Mass spectrometry was then employed to identify breakdown products (metabolites) (Supplementary Figure S1).
Serum stability. A total of 100 µL of a solution containing 1 mg/mL of Hecate peptide was incubated at 37 °C with 100 µL of fresh human serum for 20 min. Then, 200 µL of 96% ethanol solution in water was added to the mixture, which was centrifuged, and the supernatant was analysed by mass spectrometry as described below. Water was used as a negative control for samples without serum (Supplementary Figure S1).
Mass spectrometry. Compound solutions were analysed by mass spectrometry using a Bruker spectrometer in electrospray positive mode with direct injection. Spectra were analysed with the help of Spectra Analysis Software using the relationship between molecular weight (m) and charge (z) (m/z). Fragments of Hecate were identified, and the amino acid sequence was determined by m/z comparison.

Compound | Water Solubility [1] | CC50 (50% cytotoxic concentration in VERO cells) (Vero cells [2]) [µM] | maximum non-toxic concentration (Vero cells [2]; Vero cells, WST) [µM] | also measured
H3^+N-FALALKALKKALKKLKKALKKAL-CONH2 | – | – | – | cleaved bond (fresh human serum): L-K, major, 20 min
CC(C)C[C@H](NC(=O)[C@H](C)NC(=O)[C@H](CCCCN)NC(=O)[C@H](CCCCN)NC(=O)[C@H](CC(C)C)NC(=O)[C@H](C)NC(=O)[C@H](CCCCN)NC(=O)[C@H](CCCCN)NC(=O)[C@H](CC(C)C)NC(=O)[C@H](CCCCN)NC(=O)[C@H](CCCCN)NC(=O)[C@H](CC(C)C)NC(=O)[C@H](C)NC(=O)[C@H](CCCCN)NC(=O)[C@H](CCCCN)NC(=O)[C@H](CC(C)C)NC(=O)[C@H](C)NC(=O)[C@H](CCCCN)NC(=O)[C@H](CC(C)C)NC(=O)[C@H](C)NC(=O)[C@H](CC(C)C)NC(=O)[C@H](C)NC(=O)[C@H](Cc1ccccc1)NC(=O)c1cc(O)c(O)c(O)c1)C(N)=O [GA-Hecate] (Galloyl-FALALKALKKALKKLKKALKKAL-NH2) | Soluble | >70.0 | 40 | –
CC(C)C[C@H](NC(=O)[C@H](CCCCN)NC(=O)[C@H](CCCCN)NC(=O)[C@H](CC(C)C)NC(=O)[C@H](C)NC(=O)[C@H](CCCCN)NC(=O)[C@H](CCCCN)NC(=O)[C@H](CC(C)C)NC(=O)[C@H](C)NC(=O)[C@H](CCCCN)NC(=O)[C@H](CC(C)C)NC(=O)[C@H](C)NC(=O)[C@H](CC(C)C)NC(=O)[C@H](C)NC(=O)[C@H](Cc1ccccc1)NC(=O)c1cc(O)c(O)c(O)c1)C(=O)O [GA-Metabolite 5] (Galloyl-FALALKALKKALKKL-OH) | Soluble | >70.0 | 40 | virucidal inhibition (ZIKV strain MP1751; 20 µM): 98.5%; virucidal inhibition (ZIKV strain MP1751; 40 µM): 98.5%; cell viability (Vero cells [3]): did not have any effect on cell viability or cell shape
CC(C)C[C@H](NC(=O)[C@H](C)NC(=O)[C@H](CCCCN)NC(=O)[C@H](CCCCN)NC(=O)[C@H](CC(C)C)NC(=O)[C@H](C)NC(=O)[C@H](CCCCN)NC(=O)[C@H](CCCCN)NC(=O)[C@H](CC(C)C)NC(=O)[C@H](CCCCN)NC(=O)[C@H](CCCCN)NC(=O)[C@H](CC(C)C)NC(=O)[C@H](C)NC(=O)[C@H](CCCCN)NC(=O)[C@H](CCCCN)NC(=O)[C@H](CC(C)C)NC(=O)[C@H](C)NC(=O)[C@H](CCCCN)NC(=O)[C@H](CC(C)C)NC(=O)[C@H](C)NC(=O)[C@H](CC(C)C)NC(=O)[C@H](C)NC(=O)[C@@H](N)Cc1ccccc1)C(N)=O [Hecate] (H-FALALKALKKALKKLKKALKKAL-NH2) | – | – | – | stability in human blood serum [4]: degraded in human blood serum into three major metabolites
CC(C)C[C@H](NC(=O)[C@H](C)NC(=O)[C@H](CCCCN)NC(=O)[C@H](CCCCN)NC(=O)[C@H](CC(C)C)NC(=O)[C@H](C)NC(=O)[C@H](CCCCN)NC(=O)[C@H](CC(C)C)NC(=O)[C@H](C)NC(=O)[C@H](CC(C)C)NC(=O)[C@H](C)NC(=O)[C@H](Cc1ccccc1)NC(=O)c1cc(O)c(O)c(O)c1)C(=O)O [GA-Metabolite 7] (Galloyl-FALALKALKKAL-OH) | Soluble | >80.0 | – | cytotoxic effect (Vero cells [2]; Vero cells, WST, all tested concentrations 80-0.62 µM): did not show any cytotoxic effect
CC(C)C[C@H](NC(=O)[C@H](C)NC(=O)[C@H](CCCCN)NC(=O)[C@H](CC(C)C)NC(=O)[C@H](C)NC(=O)[C@H](CC(C)C)NC(=O)[C@H](C)NC(=O)[C@H](Cc1ccccc1)NC(=O)c1cc(O)c(O)c(O)c1)C(=O)O [GA-Metabolite 6] (Galloyl-FALALKAL-OH) | Not soluble | – | – | –
